The source of these data is patent US20230212319A1, “NOVEL ANTIGEN BINDING DOMAINS AND SYNTHETIC ANTIGEN RECEPTORS INCORPORATING THE SAME” (University of Southern California, priority 2020, published 2023).

To fix the notation:
B1: 22032 (protein)
chain: MALPVTALLLPLALLLHAARPQLQLQESGPGLVKPSETLSLTCTVSGDSISSGDYYWGWIRQPPGKGLEWIGHIYYSGVTYYNPSLKSRVTISVDTSRNQFSLKLSSVTAADTAVYYCTREDSSNWRSRGQGTLVTVSSLEGSEVKTDSTDHVKPKETENTKQPSKSCHKPKAIVHTEKVNMMSLTVLGLRMLFAKTVAVNFLLTAKLFFLRAKRSGSGVKQTLNFDLLKLAGDVESNPGPTSMDWIWRILFLVGAATGAHSFEVQLVESGGGVVQPGRSLRLSCAASGFSFSGYGMHWVRQAPGKGLEWVAYISYDGSNKYYADSVKGRFTISRDNSKNTLYLQMNSLRAEDTAVYYCAKDPAWGLRLGESSSYDFDIWGQGTMVTVSSTRIQNPDPAVYQLRDSKSSDKSVCLFTDFDSQTNVSQSKDSDVYITDKCVLDMRSMDFKSNSAVAWSNKSDFACANAFNNSIIPEDTFFPSPESSCDVKLVEKSFETDTNLNFQNLSVIGFRILLLKVAGFNLLMTLRLWSSRAKRSGSGVKQTLNFDLLKLAGDVESNPGPSRGHMTEYKPTVRLATRDDVPRAVRTLAAAFADYPATRHTVDPDRHIERVTELQELFLTRVGLDIGKVWVADDGAAVAVWTTPESVEAGAVFAEIGPRMAELSGSRLAAQQQMEGLLAPHRPKEPAWFLATVGVSPDHQGKGLGSAVVLPGVEAAERAGVPAFLETSAPRNLPFYERLGFTVTADVEVPEGPRTWCMTRKPGA
B2: 22069 (protein)
chain: MALPVTALLLPLALLLHAARPQLQLQESGPGLVKPSETLSLTCTVSGDSISSGDYYWGWIRQPPGKGLEWIGHIYYSGVTYYNPSLKSRVTISVDTSRNQFSLKLSSVTAADTAVYYCTREDSSNWRSRGQGTLVTVSSLEGGGGSGGGGSGGGGSVEIQNPDPAVYQLRDSKSSDKSVCLFTDFDSQTNVSQSKDSDVYITDKCVLDMRSMDFKSNSAVAWSNKSDFACANAFNNSIIPEDTFFPSPESSCDVKLVEKSFETDTNLNFQNLSVIGFRILLLKVAGFNLLMTLRLWSSSSRAKRSGSGVKQTLNFDLLKLAGDVESNPGPTSMDWIWRILFLVGAATGAHSFEVQLLESGGGLIQPGGSLRLSCAASGFTFSSHAMTWVRQAPGKGLEWVSAISGSGDYTHYADSVKGRFTISRDNSKNTVYLQMNSLRAEDSAVYYCAKDEDGGSLLGHRGQGTLVTVSSTRIQNPDPAVYQLRDSKSSDKSVCLFTDFDSQTNVSQSKDSDVYITDKCVLDMRSMDFKSNSAVAWSNKSDFACANAFNNSIIPEDTFFPSPESSCDVKLVEKSFETDTNLNFQNLSVIGFRILLLKVAGFNLLMTLRLWSSRAKRSGSGVKQTLNFDLLKLAGDVESNPGPSRGHMTEYKPTVRLATRDDVPRAVRTLAAAFADYPATRHTVDPDRHIERVTELQELFLTRVGLDIGKVWVADDGAAVAVWTTPESVEAGAVFAEIGPRMAELSGSRLAAQQQMEGLLAPHRPKEPAWFLATVGVSPDHQGKGLGSAVVLPGVEAAERAGVPAFLETSAPRNLPFYERLGFTVTADVEVPEGPRTWCMTRKPGA
B3: 22033 (protein)
chain: MALPVTALLLPLALLLHAARPQLQLQESGPGLVKPSETLSLTCTVSGDSISSGDYYWGWIRQPPGKGLEWIGHIYYSGVTYYNPSLKSRVTISVDTSRNQFSLKLSSVTAADTAVYYCTREDSSNWRSRGQGTLVTVSSLEDKTHTCPPCPAEVKTDSTDHVKPKETENTKQPSKSCHKPKAIVHTEKVNMMSLTVLGLRMLFAKTVAVNFLLTAKLFFLRAKRSGSGVKQTLNFDLLKLAGDVESNPGPTSMDWIWRILFLVGAATGAHSFEVQLVESGGGVVQPGRSLRLSCAASGFSFSGYGMHWVRQAPGKGLEWVAYISYDGSNKYYADSVKGRFTISRDNSKNTLYLQMNSLRAEDTAVYYCAKDPAWGLRLGESSSYDFDIWGQGTMVTVSSTRIQNPDPAVYQLRDSKSSDKSVCLFTDFDSQTNVSQSKDSDVYITDKCVLDMRSMDFKSNSAVAWSNKSDFACANAFNNSIIPEDTFFPSPESSCDVKLVEKSFETDTNLNFQNLSVIGFRILLLKVAGFNLLMTLRLWSSRAKRSGSGVKQTLNFDLLKLAGDVESNPGPSRGHMTEYKPTVRLATRDDVPRAVRTLAAAFADYPATRHTVDPDRHIERVTELQELFLTRVGLDIGKVWVADDGAAVAVWTTPESVEAGAVFAEIGPRMAELSGSRLAAQQQMEGLLAPHRPKEPAWFLATVGVSPDHQGKGLGSAVVLPGVEAAERAGVPAFLETSAPRNLPFYERLGFTVTADVEVPEGPRTWCMTRKPGA
B4: 22011 (protein)
chain: MALPVTALLLPLALLLHAARPQLQLQESGPGLVKPSETLSLTCTVSGDSISSGDYYWGWIRQPPGKGLEWIGHIYYSGVTYYNPSLKSRVTISVDTSRNQFSLKLSSVTAADTAVYYCTREDSSNWRSRGQGTLVTVSSLEDLKNVFPPEVAVFEPSEAEISHTQKATLVCLATGFYPDHVELSWWVNGKEVHSGVCTDPQPLKEQPALNDSRYCLSSRLRVSATFWQNPRNHFRCQVQFYGLSENDEWTQDRAKPVTQIVSAEAWGRADCGFTSESYQQGVLSATILYEILLGKATLYAVLVSALVLMAMVKRKDSRGRAKRSGSGATNFSLLKQAGDVEENPGPTSMDWIWRILFLVGAATGAHSFEQLQLQESGPGLVKPSETLSLTCTVSGGSISSGDYYWGWIRQPPGKGLEWIGHIYYSGATYYNPSLKSRVTISVDTSRNQFSLKLSSVTAADTAVYYCTRDDSSNWRSRGQGTLVTVSSTRIQNPDPAVYQLRDSKSSDKSVCLFTDFDSQTNVSQSKDSDVYITDKCVLDMRSMDFKSNSAVAWSNKSDFACANAFNNSIIPEDTFFPSPESSCDVKLVEKSFETDTNLNFQNLSVIGFRILLLKVAGFNLLMTLRLWSSRAKRSGSGVKQTLNFDLLKLAGDVESNPGPSRGHMTEYKPTVRLATRDDVPRAVRTLAAAFADYPATRHTVDPDRHIERVTELQELFLTRVGLDIGKVWVADDGAAVAVWTTPESVEAGAVFAEIGPRMAELSGSRLAAQQQMEGLLAPHRPKEPAWFLATVGVSPDHQGKGLGSAVVLPGVEAAERAGVPAFLETSAPRNLPFYERLGFTVTADVEVPEGPRTWCMTRKPGA
B5: 22031 (protein)
chain: MALPVTALLLPLALLLHAARPQLQLQESGPGLVKPSETLSLTCTVSGDSISSGDYYWGWIRQPPGKGLEWIGHIYYSGVTYYNPSLKSRVTISVDTSRNQFSLKLSSVTAADTAVYYCTREDSSNWRSRGQGTLVTVSSLEGSPIKTDVITMDPKDNCSKDANDTLLLQLTNTSAYYMYLLLLLKSVVYFAIITCCLLRRTAFCCNGEKSRAKRSGSGATNFSLLKQAGDVEENPGPTSMDWIWRILFLVGAATGAHSFEVQLVESGGGVVQPGRSLRLSCAASGFSFSGYGMHWVRQAPGKGLEWVAYISYDGSNKYYADSVKGRFTISRDNSKNTLYLQMNSLRAEDTAVYYCAKDPAWGLRLGESSSYDFDIWGQGTMVTVSSTRIQNPDPAVYQLRDSKSSDKSVCLFTDFDSQTNVSQSKDSDVYITDKCVLDMRSMDFKSNSAVAWSNKSDFACANAFNNSIIPEDTFFPSPESSCDVKLVEKSFETDTNLNFQNLSVIGFRILLLKVAGFNLLMTLRLWSSRAKRSGSGVKQTLNFDLLKLAGDVESNPGPSRGHMTEYKPTVRLATRDDVPRAVRTLAAAFADYPATRHTVDPDRHIERVTELQELFLTRVGLDIGKVWVADDGAAVAVWTTPESVEAGAVFAEIGPRMAELSGSRLAAQQQMEGLLAPHRPKEPAWFLATVGVSPDHQGKGLGSAVVLPGVEAAERAGVPAFLETSAPRNLPFYERLGFTVTADVEVPEGPRTWCMTRKPGA
B6: 22056 (protein)
chain: MALPVTALLLPLALLLHAARPQLQLQESGPGLVKPSETLSLTCTVSGDSISSGDYYWGWIRQPPGKGLEWIGHIYYSGVTYYNPSLKSRVTISVDTSRNQFSLKLSSVTAADTAVYYCTREDSSNWRSRGQGTLVTVSSLEGSPIKTDVITMDPKDNCSKDANDTLLLQLTNTSAYYMYLLLLLKSVVYFAIITCCLLRRTAFCCNGEKSRAKRSGSGATNFSLLKQAGDVEENPGPTSMDWIWRILFLVGAATGAHSFEVQLVESGGGVVQPGRSLRLSCAASGFSFSGYGMHWVRQAPGKGLEWVAYISYDGSNKYYADSVKGRFTISRDNSKNTLYLQMNSLRAEDTAVYYCAKDPAWGLRLGESSSYDFDIWGQGTMVTVSSTRDKTHTCPPCPAGRADCGFTSESYQQGVLSATILYEILLGKATLYAVLVSALVLMAMVKRKDFRAKRSGSGATNFSLLKQAGDVEENPGPSRGHMTEYKPTVRLATRDDVPRAVRTLAAAFADYPATRHTVDPDRHIERVTELQELFLTRVGLDIGKVWVADDGAAVAVWTTPESVEAGAVFAEIGPRMAELSGSRLAAQQQMEGLLAPHRPKEPAWFLATVGVSPDHQGKGLGSAVVLPGVEAAERAGVPAFLETSAPRNLPFYERLGFTVTADVEVPEGPRTWCMTRKPGA
B7: 22080 (protein)
chain: MALPVTALLLPLALLLHAARPQLQLQESGPGLVKPSETLSLTCTVSGDSISSGDYYWGWIRQPPGKGLEWIGHIYYSGVTYYNPSLKSRVTISVDTSRNQFSLKLSSVTAADTAVYYCTREDSSNWRSRGQGTLVTVSSLESGGGGSFEEVQLLESGGGLVQPGGSLRLSCAASGFTFSSYAMSWVRQAPGKGLEWVSSISGSGDYIYYADSVKGRFTISRDISKNTLYLQMNSLRAEDTAVYYCAKEGTGANSSLADYRGQGTLVTVSSTRASTKGPSVFPLAPSSKSTSGGTAALGCLVKDYFPEPVTVSWNSGALTSGVHTFPAVLQSSGLYSLSSVVTVPSSSLGTQTYICNVNHKPSNTKVDKRVEPKSCIPEDTFFPSPESSCDVKLVEKSFETDTNLNFQNLSVIGFRILLLKVAGFNLLMTLRLWSSRAKRSGSGVKQTLNFDLLKLAGDVESNPGPSRGHMTEYKPTVRLATRDDVPRAVRTLAAAFADYPATRHTVDPDRHIERVTELQELFLTRVGLDIGKVWVADDGAAVAVWTTPESVEAGAVFAEIGPRMAELSGSRLAAQQQMEGLLAPHRPKEPAWFLATVGVSPDHQGKGLGSAVVLPGVEAAERAGVPAFLETSAPRNLPFYERLGFTVTADVEVPEGPRTWCMTRKPGA

The assay has as its system RAJI cells. The assay is described as follows: JNG assay, co-culture with RAJI cells. As to conditions: JNG cells expressing construct, co-culture with Raji. The assay is classed as cell-based. The method in brief:
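Read-out is NFAT-driven GFP measured by flow cytometry after ~4–18 h co-culture of SAR-expressing JNG cells with target cells (E:T about 1:2). SARs were introduced by lentiviral spinfection and selected with puromycin or blasticidin when possible; scores (+/- to 5+ ≈ 5–50% GFP+) are relative to parental JNG cells.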
With B1, the “NFAT-GFP ASSAY: Raji” value was “+/- (refer to approximately 5%, 10%, 20%, 30%, 40% and 50% GFP positive cells)”.
Turning to B2, the “NFAT-GFP ASSAY: Raji” value is “+ (refer to approximately 5%, 10%, 20%, 30%, 40% and 50% GFP positive cells)”.
Then B3, with “+/- (refer to approximately 5%, 10%, 20%, 30%, 40% and 50% GFP positive cells)”; and B4, with “+/- (refer to approximately 5%, 10%, 20%, 30%, 40% and 50% GFP positive cells)”.
Then B5, with “+/- (refer to approximately 5%, 10%, 20%, 30%, 40% and 50% GFP positive cells)”.
Then B6, with “+/- (refer to approximately 5%, 10%, 20%, 30%, 40% and 50% GFP positive cells)”; and B7, with “+ (refer to approximately 5%, 10%, 20%, 30%, 40% and 50% GFP positive cells)”.
